Data: PMC3995836

Experiments:
[1] = target: WW1 domain of human YAP2 (residues 171-205) (human) (UniProt P46937); assay: ITC
[2] = target: WW2 domain of human YAP2 (residues 230-264) (human) (UniProt P46937); assay: ITC
WW2 domain of human YAP2 (residues 230-264) (human), sequence (P46937 230-264): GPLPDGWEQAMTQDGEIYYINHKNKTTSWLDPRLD

WW1 domain of human YAP2 (residues 171-205) (human), sequence (P46937 171-205): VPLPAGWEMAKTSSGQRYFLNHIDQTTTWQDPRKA

Kd [1] | dH [1] | Kd [2] | dH [2] | Substance
36 µM | -10.3 kcal/mol | 85 µM | -9.06 kcal/mol | ErbB4_PY3 peptide, alanine mutant PY3_A+6
113 µM | -6.14 kcal/mol |  | -3.9 kcal/mol | ErbB4_PY1 peptide (12-mer with the PY1 PPXY motif of the ICD of human ErbB4)
45 µM | -16.1 kcal/mol | 83 µM | -13.1 kcal/mol | ErbB4_PY3 peptide, alanine mutant PY3_A-2
31 µM | -13.3 kcal/mol | 56 µM | -7.72 kcal/mol | ErbB4_PY3 peptide, wildtype (12-mer with the PY3 PPXY motif of the ICD of human ErbB4)
15 µM | -14.6 kcal/mol | 46 µM | -14.6 kcal/mol | ErbB4_PY3 peptide, alanine mutant PY3_A+5
 | -12.7 kcal/mol | 126 µM | -10.1 kcal/mol | ErbB4_PY3 peptide, alanine mutant PY3_A+2
84 µM | -2.94 kcal/mol | 116 µM | -4.23 kcal/mol | ErbB4_PY2 peptide (12-mer with the PY2 PPXY motif of the ICD of human ErbB4)
46 µM | -16.9 kcal/mol | 62 µM | -10.3 kcal/mol | ErbB4_PY3 peptide, alanine mutant PY3_A-3
53 µM | -9.8 kcal/mol |  | -8.61 kcal/mol | ErbB4_PY3 peptide, alanine mutant PY3_A+4
70 µM | -15.9 kcal/mol | 110 µM | -10.7 kcal/mol | ErbB4_PY3 peptide, alanine mutant PY3_A-1
